In article PMC6733591:

T1: ScRNase PNK (Las1-Grc3 complex) (Saccharomyces cerevisiae, UniProt P36146;Q07845 1-502;1-632)
T1 sequence 1: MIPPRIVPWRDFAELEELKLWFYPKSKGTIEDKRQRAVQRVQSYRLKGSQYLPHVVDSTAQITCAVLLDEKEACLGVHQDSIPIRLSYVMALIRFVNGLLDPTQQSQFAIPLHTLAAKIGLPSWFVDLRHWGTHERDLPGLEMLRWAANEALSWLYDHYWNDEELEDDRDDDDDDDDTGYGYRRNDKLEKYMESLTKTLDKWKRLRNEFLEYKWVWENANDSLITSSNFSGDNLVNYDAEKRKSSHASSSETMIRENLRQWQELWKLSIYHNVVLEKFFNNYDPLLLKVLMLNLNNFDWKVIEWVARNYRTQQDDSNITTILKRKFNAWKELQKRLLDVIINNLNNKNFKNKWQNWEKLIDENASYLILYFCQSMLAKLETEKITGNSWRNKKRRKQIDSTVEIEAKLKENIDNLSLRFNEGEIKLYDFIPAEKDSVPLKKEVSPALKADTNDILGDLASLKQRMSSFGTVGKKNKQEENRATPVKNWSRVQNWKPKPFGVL
T1 sequence 2: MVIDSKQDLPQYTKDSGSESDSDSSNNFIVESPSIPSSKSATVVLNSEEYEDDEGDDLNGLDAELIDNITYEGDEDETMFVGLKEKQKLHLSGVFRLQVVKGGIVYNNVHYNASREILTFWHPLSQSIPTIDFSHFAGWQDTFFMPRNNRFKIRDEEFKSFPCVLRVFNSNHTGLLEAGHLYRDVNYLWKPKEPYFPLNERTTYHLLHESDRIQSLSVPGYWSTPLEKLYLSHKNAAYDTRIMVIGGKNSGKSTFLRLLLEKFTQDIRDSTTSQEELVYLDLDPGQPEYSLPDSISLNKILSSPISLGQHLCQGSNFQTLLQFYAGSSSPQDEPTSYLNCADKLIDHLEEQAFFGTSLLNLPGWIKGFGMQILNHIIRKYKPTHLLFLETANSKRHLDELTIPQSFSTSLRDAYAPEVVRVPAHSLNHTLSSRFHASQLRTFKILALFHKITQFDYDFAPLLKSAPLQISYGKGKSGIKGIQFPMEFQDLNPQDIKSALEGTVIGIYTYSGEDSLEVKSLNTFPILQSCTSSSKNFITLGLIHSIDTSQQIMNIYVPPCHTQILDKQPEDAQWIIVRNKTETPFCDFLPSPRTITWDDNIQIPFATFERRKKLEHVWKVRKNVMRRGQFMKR

B1: SS-RNA (ssRNA)
RNA: ACGUACGCGGAAUACUUCGAA
B2: SC-ITS2-cleaved-RNA (SC-ITS2-3-RNA annealed to SC-ITS2-5-RNA) (dsRNA)
RNA 1: GUCGUUUUA
RNA 2: GGUUUUACCAACUGCGGC

What was measured:
[1] = molecular target: Chaetomium thermophilum Las1 endoribonuclease (nuclease component of RNase PNK) (Chaetomium thermophilum); assay: cryo-EM structure
[2] = molecular target: T1, ScRNase PNK (Las1-Grc3 complex); assay: ITC

Molecule	stoichiometry N [1]	binding result [2]
Chaetomium thermophilum Las1 endoribonuclease (nuclease component of RNase PNK) (enzyme)	2	
B1		binds
B2		binds
